These results are taken from patent US20060039900A1 (Janssen / Centocor, published 2006).

For test [1], the target named is T1, murine tissue factor on B6F10 melanoma cells (murine, UniProt P20352 29-294).
T1 construct: whole, on cells; also called cell-associated mTF
T1 sequence (looked up): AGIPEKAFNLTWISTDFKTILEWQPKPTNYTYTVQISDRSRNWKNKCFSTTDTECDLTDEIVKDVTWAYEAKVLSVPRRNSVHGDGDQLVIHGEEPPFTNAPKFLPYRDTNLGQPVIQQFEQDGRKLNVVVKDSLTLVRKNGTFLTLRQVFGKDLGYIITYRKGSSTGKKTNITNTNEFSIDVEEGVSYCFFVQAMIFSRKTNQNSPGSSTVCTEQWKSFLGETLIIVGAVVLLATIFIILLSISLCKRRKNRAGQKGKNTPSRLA
Nature of the test: flow cytometry (FACS) on B6F10 melanoma cells expressing mTF.

Test [2] addresses T2, murine tissue factor from murine brain extracts (murine, UniProt P20352 29-294).
T2 sequence (looked up): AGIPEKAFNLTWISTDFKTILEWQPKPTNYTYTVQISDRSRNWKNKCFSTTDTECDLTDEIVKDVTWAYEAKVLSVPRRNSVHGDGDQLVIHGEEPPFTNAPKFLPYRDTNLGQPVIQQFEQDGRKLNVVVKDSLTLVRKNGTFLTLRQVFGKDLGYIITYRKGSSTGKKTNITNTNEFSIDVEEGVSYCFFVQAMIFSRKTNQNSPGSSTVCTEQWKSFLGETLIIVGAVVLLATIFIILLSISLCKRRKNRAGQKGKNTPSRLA
In words: cell-based or functional assay.

B1: PHD127 Fab (Fab, V domains shown)
VH: QVQLVQSGAEVKKPGESLKISCKGSYSFTNSWISWVRQMPGKGLEWMGIIDPDDSYTSYSPSFQGQVTISADKSISTAYLQWSSLKASDTAMYYCARGAGYGRMFGDVWGQGTLVTVSS
VL: DIELTQPPSVSVAPGQTARISCSGDNLGSYYASWYQQKPGQAPVLVIYQDDNRPSGIPERFSGSNSGNTATLTISGTQAEDEADYYCGAYTYSTSWVFGGGTKLTVLG
notes: Human Fab from the HuCAL library
B1 had an EC50 in test [1] of 4.35 nM. Further, the “EC50 Conc. (ug/ml) for human plasma (inhibition of fibrin clot formation, murine brain extracts as source of mTF)” value in test [2] amounted to 0.82 µg/mL.

B2: PHD126 Fab (Fab, V domains shown)
VH: QVQLVQSGAEVKKPGESLKISCKGSYSFSNYWIGWVRQMPGKGLEWMGFIDPDDSDTNYSPSFQGQVTISADKSISTAYLQWSSLKASDTAMYYCARALYMQGGSFDSWGQGTLVTVSS
VL: DIELTQPPSVSVAPGQTARISCSGDNLGSYYVSWYQQKPGQAPVLVIYRDTDRPSGIPERFSGSNSGNTATLTISGTQAEDEADYYCQSYDYGVSNQVFGGGTKLTVLG
As for B2, in test [2], the “EC50 Conc. (ug/ml) for human plasma (inhibition of fibrin clot formation, murine brain extracts as source of mTF)” value was 0.23 µg/mL.

B3: PHD104 Fab (Fab, V domains shown)
VH: QVQLVQSGAEVKKPGESLKISCKGSYSFTSNWIGWVRQMPGKGLEWMGWIYPSDSMTRYSPSFQGQVTISADKSISTAYLQWSSLKASDTAMYYCARYLFGLFDNWGQGTLVTVSS
VL: DIELTQPPSVSVAPGQTARISCSGDNLGSYYVSWYQQKPGQAPVLVIYNDNNRPSGIPERFSGSNSGNTATLTISGTQAEDEADYYCATYDSSTDVFGGGTKLTVLG
With B3, in test [2], the “EC50 Conc. (ug/ml) for human plasma (inhibition of fibrin clot formation, murine brain extracts as source of mTF)” value was 23.8 µg/mL.

B4: PHD103 Fab (Fab, V domains shown)
VH: QVQLVQSGAEVKKPGESLKISCKGSGYSFSNSWIAWVRQMPGKGLEWMGGIIGPGHSYTKYSPSFQGQVTISADKSISTAYLQWSSLKASDTAMYYCARINMGYFDYWGQGTLVTVSS
VL: DIELTQPPSVSVAPGQTARISCSGDSLGLKKFVSWYQQKPGQAPVLVIYDDSNRPSGIPERFSGSNSGNTATLTISGTQAEDEADYYCGTYDQTIGHDVVFGGGTKLTVLG
Take B4: in test [2], the “EC50 Conc. (ug/ml) for human plasma (inhibition of fibrin clot formation, murine brain extracts as source of mTF)” value was 63.3 µg/mL.
